Data published in paper PMC12136491, “Establishment of an efficient one-step enzymatic synthesis of cyclic-2,3-diphosphoglycerate” (Frontiers in Microbiology, 2025).
Values joined by “and” are separate entries in the source; they are usually repeats but may differ in a detail not shown here. Identical values can stand only once.

Target: the molecule itself
Assay: SEC; native molecular mass; Superose Increase 10/300 column, 50 mM MES/KOH (pH 6.5), 400 mM KCl, flow rate 0.5 mL/min, 5 mg of protein loaded

B1: cyclic-2,3-diphosphoglycerate synthetase from Methanothermus fervidus, recombinant, without affinity tag (enzyme, UniProt O93732 1-460, looked up)
chain: MGETKKMICLVDGEHYFPVVKDSIEILDDLEHIDVVAVVFIGGTEKLQIEDPKEYSEKLGKPVFFGPDPKKIPYDVIKKCVKKYNADIVMDLSDEPVVDYTKRFRIASIVLKEGAVYQGADFKFEPLTEYDVLEKPSIKIIGTGKRIGKTAVSAYAARVIHKHKYNPCVVAMGRGGPREPEIVEGNKIEITAEYLLEQADKGVHAASDHWEDALMSRILTVGCRRCGGGMLGDTFITNVKRGAEIANKLDSDFVIMEGSGAAIPPVKTNRQIVTVGANQPMININNFFGPFRIGLADLVIITMCEEPMATTEKIKKVEKFIKEINPSANVIPTVFRPKPVGNVEGKKVLFATTAPKVVVGKLVNYLESKYGCDVVGVTPHLSNRPLLRRDLKKYINKADLMLTELKAAAVDVATRVAIEAGLDVVYCDNIPVVIDESYGNIDDAIIEVVEMAIDDFKNNR
notes: cyclic 2,3-diphosphoglycerate synthetase (cdpgs gene, 1,383 bp) of Methanothermus fervidus, Mfer_0077, CAA70986; calculated molecular mass 50.7 kDa; codon-optimized gene, no tag; also called MfcDPGS; cDPGS
- stoichiometry N: 2 and 4
